The record followed here is patent US20160298117, “PEANUT-BINDING NUCLEIC ACID MOLECULE AND USE THEREOF” (NEC Solution Innovators, Ltd., published 2016).

The target of data set [1] is beta-conglycinin (undenatured) (Glycine max, UniProt P0DO16;P11827;P25974 P0DO16:63-605,P11827:63-621,P25974:24-439). In words: SPR; little binding, 18.75-300 nM. The settings on record: tags: Sigma C5868-5GM. As for the experimental part:
(§1) First, as a sensor chip designed specifically for the ProteON, a streptavidin-immobilized chip (trade name: ProteOn NLC Sensor Chip, BioRad) was set in the ProteON XPR36. Biotinylated poly(dT) at 5 μmol/L was injected to a flow cell of the sensor chip using ultrapure water (DDW), and the binding was allowed to proceed until the signal intensity (RU: Resonance Unit) reached about 900 RU. The biotinylated poly(dT) was prepared by biotinylating the 5′ end of 24-mer deoxythymidine. Then, the poly(dA)-added aptamer at 1 μmol/L was injected to the flow cell of the chip using an SPR buffer at a flow rate of 25 μL/min for 80 seconds, and the binding was allowed to proceed until the signal intensity reached about 800 RU. […] Subsequently, the sample was injected using the SPR buffer at a flow rate of 50 μL/min for 120 seconds, followed by washing performed by flowing the SPR buffer under the same conditions. Signal intensity measurement was performed concurrently with the injection of the sample and the washing with the SPR buffer.
The concentrations of the β-conglycinin were set to 18.75, 37.5, 75, 150, and 300 nmol/L, and the protein concentrations in the soybean samples were set to 1, 3, 10, 30, and 100 ppm. The SPR analysis was performed in the same manner as in Example 1, except that these samples were used. Then, from the results of the above-described SPR analysis, the relative binding value was determined regarding the proteins in each peanut sample bound to the aptamer immobilized on the chip. The relative binding value was calculated as the ratio of the protein binding measured value to the aptamer immobilization measured value (the protein binding measured value/the aptamer immobilization measured value).
Background: In SPR one partner is held on a chip, and binding of the other changes the refractive index at the surface.

The target of data set [2] is T1, conarachin (heat-denatured, boiled 10 min) (Arachis hypogaea, UniProt P43238 P43238:26-626).
T1 sequence: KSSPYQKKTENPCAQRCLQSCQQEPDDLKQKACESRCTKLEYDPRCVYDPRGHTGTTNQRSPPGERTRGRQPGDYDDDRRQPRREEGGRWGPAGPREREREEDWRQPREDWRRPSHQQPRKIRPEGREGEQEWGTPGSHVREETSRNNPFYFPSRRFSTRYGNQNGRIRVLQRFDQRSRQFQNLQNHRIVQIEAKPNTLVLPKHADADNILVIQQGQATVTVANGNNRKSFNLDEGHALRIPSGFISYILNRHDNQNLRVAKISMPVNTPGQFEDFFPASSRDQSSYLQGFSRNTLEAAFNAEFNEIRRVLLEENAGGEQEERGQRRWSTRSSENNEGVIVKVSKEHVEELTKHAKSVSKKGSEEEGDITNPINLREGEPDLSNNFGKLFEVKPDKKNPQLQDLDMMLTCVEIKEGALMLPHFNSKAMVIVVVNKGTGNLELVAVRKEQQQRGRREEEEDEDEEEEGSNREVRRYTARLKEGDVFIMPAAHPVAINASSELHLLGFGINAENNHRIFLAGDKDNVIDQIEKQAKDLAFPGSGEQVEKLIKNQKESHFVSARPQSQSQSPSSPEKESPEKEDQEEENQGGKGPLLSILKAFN
Briefly: SPR; 3.125-50 nM; superior to undenatured. The following applies: tags: COSMO BIO CSB-CSB-NP003601PL. The procedure: (§2) First, as a sensor chip designed specifically for the ProteON, a streptavidin-immobilized chip (trade name: ProteOn NLC Sensor Chip, BioRad) was set in the ProteON XPR36. Biotinylated poly(dT) at 5 μmol/L was injected to a flow cell of the sensor chip using ultrapure water (DDW), and the binding was allowed to proceed until the signal intensity (RU: Resonance Unit) reached about 900 RU. The biotinylated poly(dT) was prepared by biotinylating the 5′ end of 24-mer deoxythymidine. Then, the poly(dA)-added aptamer at 1 μmol/L was injected to the flow cell of the chip using an SPR buffer at a flow rate of 25 μL/min for 80 seconds, and the binding was allowed to proceed until the signal intensity reached about 800 RU. […]
(§3) Samples were prepared by adjusting the undenatured conarachin to predetermined concentrations (10, 30, 100, 300, and 1000 nmol/L) and the heat-denatured conarachin to predetermined concentrations (3.125, 6.25, 12.5, 25, and 50 nmol/L). […] From the results of the above-described SPR analysis, the relative binding value was determined regarding the conarachin bound to the aptamer immobilized on the chip. The relative binding value was calculated as the ratio of the protein binding measured value to the aptamer immobilization measured value (the protein binding measured value/the aptamer immobilization measured value).

The target of data set [3] is T2, Ara h1 (heat-denatured, purified from parboiled peanut) (Arachis hypogaea, UniProt P43238 P43238:26-626).
T2 sequence: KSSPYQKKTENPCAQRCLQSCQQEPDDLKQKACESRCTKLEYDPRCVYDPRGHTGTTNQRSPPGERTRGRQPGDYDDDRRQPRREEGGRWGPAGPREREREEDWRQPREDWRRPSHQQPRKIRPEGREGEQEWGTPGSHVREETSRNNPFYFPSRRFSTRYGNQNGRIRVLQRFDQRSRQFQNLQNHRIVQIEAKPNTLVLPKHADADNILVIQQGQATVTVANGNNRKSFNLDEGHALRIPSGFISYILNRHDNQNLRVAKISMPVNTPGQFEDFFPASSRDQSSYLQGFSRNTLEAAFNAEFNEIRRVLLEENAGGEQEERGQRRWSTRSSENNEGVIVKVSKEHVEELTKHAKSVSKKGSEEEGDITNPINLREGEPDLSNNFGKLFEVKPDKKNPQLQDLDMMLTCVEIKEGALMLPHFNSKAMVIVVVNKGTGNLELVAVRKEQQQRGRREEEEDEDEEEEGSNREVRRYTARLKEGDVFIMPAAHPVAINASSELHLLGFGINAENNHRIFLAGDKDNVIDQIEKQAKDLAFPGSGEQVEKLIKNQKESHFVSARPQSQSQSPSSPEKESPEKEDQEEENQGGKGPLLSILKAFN
In words: SPR; 6.25-100 nM Ara h1. The settings on record: tags: INDOOR biotechnologies NA-AH1-1. The procedure:
as §2
Samples were prepared by adjusting the Ara h1 used in Example 2 to predetermined concentrations (6.25, 12.5, 25, 50, and 100 nmol/L). […] From the results of the above-described SPR analysis, the relative binding value was determined regarding the Ara h1 bound to the aptamer immobilized on the chip. The relative binding value was calculated as the ratio of the protein binding measured value to the aptamer immobilization measured value (the protein binding measured value/the aptamer immobilization measured value).

Data set [4] concerns the target beta-conglycinin (heat-denatured, boiled 10 min) (Glycine max, UniProt P0DO16;P11827;P25974 P0DO16:63-605,P11827:63-621,P25974:24-439). Briefly: SPR; little binding, 18.75-300 nM. The settings on record: tags: Sigma C5868-5GM. The procedure: as §1, with “Biotinylated” for “First, as a sensor chip designed specifically for the ProteON, a streptavidin-immobilized chip (trade name: ProteOn NLC Sensor Chip, BioRad) was set in the ProteON XPR36. Biotinylated”
As soybean allergen samples, undenatured β-conglycinin, heat-denatured β-conglycinin, undenatured soybean proteins, and heat-denatured soybean proteins were provided. A commercially available product (Sigma, trade name β-conglycinin from Glycine max (soybean), C5868-5GM) was used as the undenatured β-conglycinin. The heat-denatured β-conglycinin was prepared by boiling the undenatured β-conglycinin for 10 minutes and then collecting a supernatant fraction. As the undenatured soybean proteins and the heat-denatured soybean proteins, the undenatured soybean sample and the heat-denatured soybean sample in Example 1 were used.
The concentrations of the β-conglycinin were set to 18.75, 37.5, 75, 150, and 300 nmol/L, and the protein concentrations in the soybean samples were set to 1, 3, 10, 30, and 100 ppm. The SPR analysis was performed in the same manner as in Example 1, except that these samples were used. Then, from the results of the above-described SPR analysis, the relative binding value was determined regarding the proteins in each peanut sample bound to the aptamer immobilized on the chip.

Another data set deals with T3, conarachin (undenatured) (Arachis hypogaea, UniProt P43238 P43238:26-626).
T3 sequence: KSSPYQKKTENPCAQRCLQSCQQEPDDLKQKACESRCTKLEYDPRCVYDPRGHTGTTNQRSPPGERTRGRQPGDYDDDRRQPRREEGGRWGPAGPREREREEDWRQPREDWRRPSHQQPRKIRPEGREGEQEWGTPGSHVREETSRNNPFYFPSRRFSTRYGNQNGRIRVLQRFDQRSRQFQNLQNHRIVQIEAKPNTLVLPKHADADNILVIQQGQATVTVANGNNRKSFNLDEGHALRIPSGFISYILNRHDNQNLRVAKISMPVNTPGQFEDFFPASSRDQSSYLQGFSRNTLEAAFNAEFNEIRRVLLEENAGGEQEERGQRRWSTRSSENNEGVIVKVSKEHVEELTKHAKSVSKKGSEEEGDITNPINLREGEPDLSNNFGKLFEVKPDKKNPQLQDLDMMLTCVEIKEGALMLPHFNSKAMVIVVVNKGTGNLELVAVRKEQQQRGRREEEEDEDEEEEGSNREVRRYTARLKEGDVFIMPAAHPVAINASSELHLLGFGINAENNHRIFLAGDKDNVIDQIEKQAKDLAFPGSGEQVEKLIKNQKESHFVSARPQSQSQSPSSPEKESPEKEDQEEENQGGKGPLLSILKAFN
In words: SPR; 10-1000 nM conarachin. The following applies: tags: COSMO BIO CSB-CSB-NP003601PL. The procedure:
as §2, §3

Chain of beta-conglycinin (heat-denatured, boiled 10 min) (P0DO16 63-605, chain 1 of 3): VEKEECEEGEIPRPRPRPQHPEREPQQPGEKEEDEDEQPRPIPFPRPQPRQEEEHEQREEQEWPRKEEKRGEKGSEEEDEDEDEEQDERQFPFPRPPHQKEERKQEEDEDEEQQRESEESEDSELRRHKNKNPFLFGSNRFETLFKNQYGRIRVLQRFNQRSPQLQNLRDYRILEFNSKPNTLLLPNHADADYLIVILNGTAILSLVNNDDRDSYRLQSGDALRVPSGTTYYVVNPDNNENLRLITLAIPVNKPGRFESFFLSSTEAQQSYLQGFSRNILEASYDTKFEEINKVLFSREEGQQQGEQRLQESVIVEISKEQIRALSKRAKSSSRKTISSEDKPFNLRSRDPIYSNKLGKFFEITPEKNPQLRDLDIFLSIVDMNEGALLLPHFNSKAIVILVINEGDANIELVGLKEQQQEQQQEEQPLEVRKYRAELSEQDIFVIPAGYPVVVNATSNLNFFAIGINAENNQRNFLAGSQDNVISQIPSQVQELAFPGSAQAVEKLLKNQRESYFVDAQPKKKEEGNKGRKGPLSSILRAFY
Chain of beta-conglycinin (heat-denatured, boiled 10 min) (P11827 63-621, chain 2 of 3): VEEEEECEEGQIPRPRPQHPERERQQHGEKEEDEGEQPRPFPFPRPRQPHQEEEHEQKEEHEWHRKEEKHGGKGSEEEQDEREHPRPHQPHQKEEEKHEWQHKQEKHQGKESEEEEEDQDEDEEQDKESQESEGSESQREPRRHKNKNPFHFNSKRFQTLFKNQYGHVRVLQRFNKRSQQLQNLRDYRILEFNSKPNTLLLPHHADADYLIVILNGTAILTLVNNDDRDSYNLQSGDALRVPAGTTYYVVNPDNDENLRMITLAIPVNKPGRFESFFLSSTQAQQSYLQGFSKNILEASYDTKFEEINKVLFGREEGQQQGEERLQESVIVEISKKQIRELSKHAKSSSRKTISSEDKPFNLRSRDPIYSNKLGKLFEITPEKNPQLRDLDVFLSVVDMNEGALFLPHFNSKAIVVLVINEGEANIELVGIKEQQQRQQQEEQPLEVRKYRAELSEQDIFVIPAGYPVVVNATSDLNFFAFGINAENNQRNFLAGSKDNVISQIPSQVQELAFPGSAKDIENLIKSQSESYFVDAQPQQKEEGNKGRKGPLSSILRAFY
Chain of beta-conglycinin (heat-denatured, boiled 10 min) (P25974 24-439, chain 3 of 3): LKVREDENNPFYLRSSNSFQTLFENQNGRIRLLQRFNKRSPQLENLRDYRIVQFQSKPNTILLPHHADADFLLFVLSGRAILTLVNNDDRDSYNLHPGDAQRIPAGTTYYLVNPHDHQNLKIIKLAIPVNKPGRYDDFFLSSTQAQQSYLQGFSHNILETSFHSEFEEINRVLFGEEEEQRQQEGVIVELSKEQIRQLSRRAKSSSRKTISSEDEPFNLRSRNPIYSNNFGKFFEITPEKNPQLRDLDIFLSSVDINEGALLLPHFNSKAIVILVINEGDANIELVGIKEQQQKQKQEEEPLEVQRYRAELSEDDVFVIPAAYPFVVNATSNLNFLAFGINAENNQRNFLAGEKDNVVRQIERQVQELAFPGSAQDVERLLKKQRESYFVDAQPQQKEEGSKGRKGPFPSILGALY
Chain of beta-conglycinin (undenatured) (P0DO16 63-605, chain 1 of 3): as the sequence (P0DO16 63-605, chain 1 of 3) above
Chain of beta-conglycinin (undenatured) (P11827 63-621, chain 2 of 3): as the sequence (P11827 63-621, chain 2 of 3) above
Chain of beta-conglycinin (undenatured) (P25974 24-439, chain 3 of 3): as the sequence (P25974 24-439, chain 3 of 3) above

B1: P_NES02 (CONA161R8m1s31) (ssDNA)
DNA: GAATCCGCGGGGTAGCGGTGGCGAGCGATTCAAAAAAAAAAAAAAAAAAAAAAAA
On to B1, for which the binding result is “no binding” in data set [1]; “binds” in data set [2]; “binds” in data set [3]; “no binding” in data set [4]; “binds” in the data set with conarachin (undenatured).
